{
  "source": "the nanobody polyreactivity screen of Harvey et al. (2022)",
  "data": [
    {"experiment": "yeast display, Sf9 membrane polyspecificity reagent, FACS + sequencing; frameworks hold sequencing errors", "how_it_was_run": "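Genes from sorted yeast were amplified by colony PCR, read by MiSeq 2 × 250 sequencing and filtered on CDR length. These cells carried a synthetic nanobody library in Saccharomyces cerevisiae BJ5465 and were sorted by FACS into low and high (top ~1%) gates on anti-HA and streptavidin fluorescence. Polyreactivity is labelled according to the gate of origin.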", "values": [
      {"sequence": "QVQLVESGGGLVQAGRSLRLSCAASGSILSINGMGWYRQAPGKERELVATIDGSEGSTFYADSVKGRFTISRDNAKNTFYLQLNSVKPEDTAVYYCAAENFWQTKEYDYWGQGKQVTVSS", "polyreactivity (PSR sort gate)": "low polyreactivity"},
      {"sequence": "QVQLVESGGGLVQAGGSLRLSCAASGSTFPGNAMGWYRQAPGKERELVASISGGGDSTYYADSVKGRFTISRDNAKNTVYLQMISLKPEDTAVYYCAVDIDSNSGTRDYWGQGTQVTVSS", "polyreactivity (PSR sort gate)": "low polyreactivity"},
      {"sequence": "QVQLVESGGGLVQEGGSLRLSCAASGITFGSYAMGWYRQAPGKERELVAAIDTSGDDTYYADSVKGRFTISRDNAKYTVYLQMNSLKPEDTAVYYCAADFPSAEVDYWGQGTQVTVSS", "polyreactivity (PSR sort gate)": "low polyreactivity"},
      {"sequence": "QVQLVESGGGLVQAGGSLRLSCAASGSIFRYYAMGLYRQAPGKERVLVAAFSGSGGITLYADSVKVRFSISRDNAKNTVYLQMNCLKPEDTAVYFCATRPGTRPAYDYWGQGTQVTVSS", "polyreactivity (PSR sort gate)": "high polyreactivity"},
      {"sequence": "QVQLVESGGGLVQAGGSLRLSCAPSGFIFAKYTMGWSRHAPGKERELVAAISANGGNTYYADSVKGRFTITRDNAKNTVYLQMNSLNPEDTAVYYCAALYKYSSYFDYWGQGTLVTVSS", "polyreactivity (PSR sort gate)": "high polyreactivity"},
      {"sequence": "QVQLVESGGGLVQAGGSLRLSCAASGSTFYRNAMGWYRQAPGKERELVAGISYGGGSTYYADSVKGRFTISRDNAKNTVYLQMNSLKPEDTAVYYCNAVWVKRHYYYWGQGTQVTVSS", "polyreactivity (PSR sort gate)": "low polyreactivity"},
      {"sequence": "QVQVVESGGGLVQAGGSLRLSCAASGLTFQVYAKGWYRQAPGKERELVARISSSGSSTYADSVKGRFTISRDNAKNTVYLQMNSLKPEDTAVYYCNAGKRQRGEYWGQGTQVTVSS", "polyreactivity (PSR sort gate)": "high polyreactivity"},
      {"sequence": "QVQLVESGGGLVQAGGSLRLSCAASGSIFTQYTMGWYRQAPGKERELVAAISRSGGRTYYADSVKGRFTISRDNSKNTVYLQMKSLKPEDTAVYYCAAEYTDKYEYWGQGTQVTVSS", "polyreactivity (PSR sort gate)": "high polyreactivity"},
      {"sequence": "QVQLVESGGGLVQAGGSLRLSCAASGRILSVYAMGWYRQAPGKERELVAAIEYSGGSTNYADSVKGRFTISRDNAKHTVYLQMNSLKPEDTAVYYCNREGGAIAWRYLLEYLYSWGQGTQVTVSS", "polyreactivity (PSR sort gate)": "low polyreactivity"},
      {"sequence": "QVQLVESGGGLVQAGGSLRISCAASGLIFAIYAMGWYRQAPGKERELVAAIRWSGASPYADSVKGRFTISRDNAKKTVYLQMNSLKPEDSAVYYCAADDLLDYDYWGQGTQVTVSA", "polyreactivity (PSR sort gate)": "low polyreactivity"},
      {"sequence": "QVQLVESGGGLAQAGGSLRLTCAASGSTFQIYAMGWYRPAPGKERELVAAITSSSSTNYADSVKGRFTISRDNAKNTVYLQMNRLKPEDTAVYYCAADVSWRSNWYDYWGLGTQVTVSS", "polyreactivity (PSR sort gate)": "low polyreactivity"},
      {"sequence": "QVQLVESGGGLVQAGGSLRLSCAASGRIFRAYAMGWYRQAPGKERELVAAISSRGGSTYYADSVKGRFTISRDNAKNTVYLQMNSLKPEDTAVYYCNVDTPFREGSYDYWGQGTQVSVSS", "polyreactivity (PSR sort gate)": "high polyreactivity"},
      {"sequence": "QVQLVESGGGLVQAGGSLRLICAASGRTFYGYAMGWYRQAPGKERELVAAISTGGGRTYYADSVKGRFTISRDNAKNTVYLQMNSLKPEDTAVYYCAARRAYPHYRVDYWGPGTQVTVSS", "polyreactivity (PSR sort gate)": "high polyreactivity"},
      {"sequence": "QVQLVESGGGLVQAGGSLRLSCAASGRTTYWYAMGWYRQAPGKERELLADISWSGGSTYYADSVKGRFTISRDNAKNTVYIQMNSLKPEDTAVYYCNAAEQKYSIYYAFDTGPYDYWGQGTQVTVSS", "polyreactivity (PSR sort gate)": "low polyreactivity"},
      {"sequence": "QVQLEESGGGLVHAGGSLRLSCAASGFTFYSYAMGWYRQAPGKERELVAAITQSGGSTYYADSVKGRFTISRDNAKNTVYFQMNSLKPEDTAVYYCAAGRRSSWRYYLWYDYWGQGTQVTVSS", "polyreactivity (PSR sort gate)": "low polyreactivity"},
      {"sequence": "QVQLVESGGGLVQAGGSLRLSCAASGSIFVTYAMGWYRQAPGKERELVAAITGRDGITYADSVKGRFTISCDNAKNTVYVQMNSLKPEDTAVYYCAAVSHGVYYQYRRRYYSWGQGTQVTVSS", "polyreactivity (PSR sort gate)": "high polyreactivity"},
      {"sequence": "QVQLVESGGGLVQAGGSLRLSCAASGFTIWRYAMGWYRQAPGKERELVAAISRGGSTNYADSVKGRFTISRDNAKNTVYLQMNSLKPEDTAVYYCAASVQYRRLKKFYYWGQGTQVTVSS", "polyreactivity (PSR sort gate)": "high polyreactivity"}
    ]}
  ]
}
